Test results published in article PMC11229321 (Nucleic Acids Research, 2024).
Where a chain is given by its changes, count along the chain named. Numbers in names are those of the source.

What was measured:
[1] = molecular target: YejK(Δ134–147) (E. coli) (UniProt P33920); test: SEC
[2] = molecular target: the molecule itself; test: SEC
[3] = molecular target: the molecule itself; test: cross-linking
[4] = molecular target: T1, YejK (Escherichia coli, UniProt P33920 1-335); test: fluorescence polarization
T1 sequence: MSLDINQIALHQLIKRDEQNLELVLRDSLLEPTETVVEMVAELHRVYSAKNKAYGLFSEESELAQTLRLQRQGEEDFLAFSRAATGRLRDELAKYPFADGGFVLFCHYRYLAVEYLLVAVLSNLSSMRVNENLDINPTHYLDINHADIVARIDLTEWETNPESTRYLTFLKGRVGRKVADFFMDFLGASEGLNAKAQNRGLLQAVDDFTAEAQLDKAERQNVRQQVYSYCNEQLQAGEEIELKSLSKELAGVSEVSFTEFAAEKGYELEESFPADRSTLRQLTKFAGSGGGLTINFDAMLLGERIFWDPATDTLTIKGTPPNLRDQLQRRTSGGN

[5] = molecular target: T2, YejK(R276A-R280A-K284A) (Escherichia coli, UniProt P33920 1-335, R276A;R280A;K284A); test: fluorescence polarization
T2 sequence: T1 sequence with R276A, R280A, K284A

[6] = molecular target: T3, YejK C-trunc, YejK(1-290) (Escherichia coli, UniProt P33920 1-290, del291-335); test: fluorescence polarization
T3 sequence: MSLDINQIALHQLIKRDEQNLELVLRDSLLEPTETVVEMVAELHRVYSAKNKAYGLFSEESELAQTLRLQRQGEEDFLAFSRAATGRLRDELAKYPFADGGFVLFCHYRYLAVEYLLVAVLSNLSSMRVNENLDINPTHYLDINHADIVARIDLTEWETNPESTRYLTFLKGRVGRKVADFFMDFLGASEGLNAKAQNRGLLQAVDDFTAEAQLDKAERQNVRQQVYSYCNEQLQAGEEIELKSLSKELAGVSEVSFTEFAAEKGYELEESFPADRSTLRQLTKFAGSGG

YejK(Δ134–147) (from UniProt P33920 1-335) (natural protein)
stoichiometry N [1]: 2

B1: E. coli YejK protein (WT) (natural protein, UniProt P33920 1-335, looked up)
chain: T1 sequence
stoichiometry N [2]: 2

B2: YejK(R173A-R176A-K177A) (natural protein, E. coli, UniProt P33920 1-335, looked up)
chain: T1 sequence with R173A, R176A, K177A
stoichiometry N [3]: 2

B3: YejK(R276A-R280A-K284A) (natural protein, E. coli, UniProt P33920 1-335, looked up)
chain: T1 sequence with R276A, R280A, K284A
stoichiometry N [3]: 2

B4: AT-rich 20-mer (dsDNA)
DNA 1: ATTATTAATTAATTAATAAT
DNA 2: ATTATTAATTAATTAATAAT
Kd [4]: 6.8 ± 0.5 µM | Kd [5]: 40 ± 5.6 µM | binding result [6]: no binding
